B1: Protein RESTRICTED TEV MOVEMENT 3 (Arabidopsis thaliana (Mouse-ear cress)), D5K228 (parent)
chain: MGKQFDKKITWTIKNFASLLSDLIYSDHFVVGGCKWHLRAYPKGYNNANSLSLFLGVAVPTSLPSGWRRHTKFRLTLVNQLSDKLSQSKLNELEQWFDEKTTNWGLSSMCPLNEIHAKDSGFLLNGELKIVVEIKVLETIGKLDVTEETSTITETVDVNGFQLLPSQAKSVSRMFAKHPELASDLRPKNPNLRTGYMSLLLSLIETLSQLPQQMSKDDLLDAYDALGSMRDAGFKLDWLEKKLYEVSEKKENEEASETGLQEMEEELKDMKQKCLEMEALVEKEKAKVSTAKAPISFDDIV
partner: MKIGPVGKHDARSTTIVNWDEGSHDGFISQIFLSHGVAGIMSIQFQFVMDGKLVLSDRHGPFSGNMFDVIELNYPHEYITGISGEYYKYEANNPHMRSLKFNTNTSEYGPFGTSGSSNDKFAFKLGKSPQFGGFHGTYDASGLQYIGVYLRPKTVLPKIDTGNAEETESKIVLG

Variants of: B1
Conditions: with jal1_arath RTM1, Q9SE37

Variant | effect of a mutation on the interaction
MGKQFDKKITWTIKNFASLLSDLIYSDHFVVGGCKWHLRAYPKGYNNANSLSLFLGVAVPTSLPSGWRRHTKFRLTLVNQLSDKLSQSKLNELEQWFDEKTTNWGLSSMCPLNEIHAKDSGFLLNGELKIVVEIKVLETIGKLDVTEETSTITETVDVNGFQLLPSQAKSVSRMFAKHPELASDLRPKNPNLRTGYMSLLLSLIETLSQLPQQMSKDDLLDAYDALGSMRDAGFKLDWLEKKLYEVSEKKENEEASETGLQEMEEELKDMKQKCLEMEALVEKKKAKVSTAKAPISFDDIV [E284K] | decreasing interaction

From IntAct's records for PubMed 20584941
